Experiment [1] addresses IntC-CCre tagged with FLAG (UniProt P06956).
Experiment [2] has the same target. The source holds these as a separate data set.
For experiment [3] the target is unchanged. The source holds these as a separate data set.

For the substance “NCre-IntN tagged with HA (from UniProt P06956 1-59)”, the DsRed fluorescence from a LoxP-stop-LoxP DsRed reporter in HEK293T cells cotransfected with both constructs (none with either alone) in experiment [1] was determined as 99%. In experiment [2], the TdTomato fluorescence in striatal neurons of Dlx6-CCre-IRES-eGFP reporter mice injected with NCre-IntN-mTagBFP2 lentivirus came out at 78.3%. In addition, the TdTomato expression in neurons of the central amygdala after injection of FuG-E-NCre-IntN retrograde lentivirus into the dorsal striatum of Dlx6-CCre-IRES-eGFP::LoxP-stop-LoxP-TdTomato mice in experiment [3] stood at 89.9%.

(Values after publication PMC7331137.)
